# Measured values as given in patent publication US20240228562A1, “NOVEL LIPOCALIN MUTEINS SPECIFIC FOR CONNECTIVE TISSUE GROWTH FACTOR (CTGF)” (PIERIS PHARMACEUTICALS GMBH, priority 2021, published 2024).
# Residue numbers refer to the chain shown, from its start.
# T1: Murine CTGF (Mus musculus, UniProt P29268)
# T1 construct: purchased Abbexa
# T1 sequence (P29268 26-348): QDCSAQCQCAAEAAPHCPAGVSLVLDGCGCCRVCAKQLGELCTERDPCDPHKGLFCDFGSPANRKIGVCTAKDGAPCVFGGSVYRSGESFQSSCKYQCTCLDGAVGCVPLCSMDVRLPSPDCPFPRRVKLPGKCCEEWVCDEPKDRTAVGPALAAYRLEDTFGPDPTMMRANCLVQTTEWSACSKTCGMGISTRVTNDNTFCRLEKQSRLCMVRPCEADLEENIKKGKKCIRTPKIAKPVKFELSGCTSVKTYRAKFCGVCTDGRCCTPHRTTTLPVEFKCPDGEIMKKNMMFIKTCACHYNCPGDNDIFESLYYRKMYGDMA
# B1: SEQ ID NO: 28: optimized CTGF-binding hNGAL lipocalin mutein (protein)
# chain: QDSTSDLIPAPPLSKVPLQQNFQDNQFQGKWYVVGLAGNYRLREDKDPSKMGATIYELKEDKSYDVTQVQFDDKKCLYVIETFVPGSQPGEFTLGAIKSYPGLTSQLVRVVSTNYNQHAMVFVKKVWPNLEYFQIVLYGRTKELTSELKENFIRFSKSLGLPENHIVFPVPIDQCIDG
# modifications: lipocalin mutein
# B2: SEQ ID NO: 26: optimized CTGF-binding hNGAL lipocalin mutein (protein)
# chain: QDSTSDLIPAPPLSKVPLQQNFQDNQFQGKWYVVGLAGNYRLREDKDPSKMGATIYELKEDKSYDVTQVQFDDKKCLYVIETFVPGSQPGEFTLGNIKVYPTLESQLVRVVSTNYNQHAMVFFKKVYQNREVFWITLYGRTKELTSELKENFIRFSKSLGLPENHIVFPVPIDQCIDG
# modifications: lipocalin mutein
# B3: SEQ ID NO: 27: optimized CTGF-binding hNGAL lipocalin mutein (protein)
# chain: B1 chain with V123L, W127Y, P128G, N129S, L130E, Q134H, V136T
# modifications: lipocalin mutein
# B4: SEQ ID NO: 14: optimized CTGF-binding hNGAL lipocalin mutein (protein)
# chain: QDSTSDLIPAPPLSKVPLQQNFQDNQFQGKWYVVGLAGNAILREDKYPAKMFATIYELKEDKSYDVTSVRFEAKSCIYTIKTFVPGSQPGEFTRGNIKSAPGQTSTLVRVVSTNYNQHAMVFFKHVSQNREIFVITLYGRTKELTSELKENFIRFSKSLGLPENHIVFPVPIDQCIDG
# modifications: lipocalin mutein
# B5: SEQ ID NO: 17: optimized CTGF-binding hNGAL lipocalin mutein (protein)
# chain: B4 chain with E44T, Y47Q, I77V, I80S, R94A, I132F
# modifications: lipocalin mutein
# B6: SEQ ID NO: 11: optimized CTGF-binding hNGAL lipocalin mutein (protein)
# chain: B4 chain with Y47Q, I77S, I80S, R94A, I132T
# modifications: lipocalin mutein
# B7: SEQ ID NO: 12: optimized CTGF-binding hNGAL lipocalin mutein (protein)
# chain: B4 chain with A73N, I77V, R94T, I132F
# modifications: lipocalin mutein
# B8: SEQ ID NO: 19: optimized CTGF-binding hNGAL lipocalin mutein (protein)
# chain: B4 chain with Y47Q, I77S, R94A, F123H, H125A, I132S
# modifications: lipocalin mutein
# B9: SEQ ID NO: 21: optimized CTGF-binding hNGAL lipocalin mutein (protein)
# chain: B4 chain with Y47Q, I77S, R94A, H125A, S127R, Q128G, N129A, I132S, V134N, T136A
# modifications: lipocalin mutein
# B10: SEQ ID NO: 13: optimized CTGF-binding hNGAL lipocalin mutein (protein)
# chain: B4 chain with A73N, I77V, I80S, R94T, I132F
# modifications: lipocalin mutein
# B11: SEQ ID NO: 16: optimized CTGF-binding hNGAL lipocalin mutein (protein)
# chain: B4 chain with E44T, Y47Q, I77V, R94A, I132F
# modifications: lipocalin mutein
# B12: SEQ ID NO: 20: optimized CTGF-binding hNGAL lipocalin mutein (protein)
# chain: B4 chain with Y47Q, I77S, R94A, F123A, H125A, S127Q, Q128L, I132H, V134F
# modifications: lipocalin mutein
# B13: SEQ ID NO: 18: optimized CTGF-binding hNGAL lipocalin mutein (protein)
# chain: B4 chain with L36I, E44D, A73N, R94H, A100H
# modifications: lipocalin mutein
# B14: SEQ ID NO: 8: optimized CTGF-binding hNGAL lipocalin mutein (protein)
# chain: QDSTSDLIPAPPLSKVPLQQNFQDNQFQGKWYVVGLAGNYGLRTDKRPSKMFATIYELKEDKSYDVTSVRFEQERCHYTIRTFVPGSQPGEFTSGNIGNYPGSYSTLVRVVSTNYNQHAMVFFKSVIQNREYFAITLYGRTKELTSELKENFIRFSKSLGLPENHIVFPVPIDQCIDG
# modifications: lipocalin mutein
# Biological target: T2, human CTGF (Homo sapiens, UniProt P29279, H83D)
# T2 construct: purchased Creative Biomart
# Test: SPR binding kinetics and affinity, human CTGF
# Parameters: key to human CTGF kon / human CTGF koff / human CTGF KD: B binding without determination of kinetics constants
# Conditions: 25° C., 1:1 binding model
# Method: (§1) Surface plasmon resonance (SPR) was used to measure binding kinetics and affinity of the representative lipocalin muteins disclosed herein.
# (§2) The binding of exemplary lipocalin muteins to human (Creative Biomart), cynomolgus, rat (R&D Systems) and mouse CTGF (Abbexa) was determined by SPR using a Biacore instrument (Cytiva, formerly GE Healthcare). Some targets were fused to a human IgG1 Fc tag, and captured via the anti-human IgG antibody kit, others were directly immobilized.
# (§3) For some measurements, human CTGF with a human IgG1 Fc Tag or rat or murine CTGF without a tag were directly immobilized to a CM5 Chip. The carboxyl groups on the chip were activated using 1-ethyl-3-(3-dimethylaminopropyl)-carbodiimide (EDC) and N-hydroxysuccinimide (NHS). Subsequently, the targets at a concentration of 3-5 μg/mL in 10 mM sodium acetate (pH) 4.5 were applied at a flow rate of 10 μL/min until an immobilization level of 300-1100 resonance units was achieved. Residual non-reacted NHS-esters were blocked by passing a solution of 1 M ethanolamine across the surface. The reference channel was activated/deactivated. For the capture setting, targets with an IgG Fc Tag at 0.25-2.5 μg/mL in HBS-EP+ buffer were captured by the anti-human IgG-Fc antibody at the chip surface for 180 s at a flow rate of 10 μL/min.
# (§4) The binding assay was carried out with a contact time of 180 s, a dissociation time of 900-3600 s and a flow rate of 30 μL/min. All measurements were performed at 25° C. […] For the directly immobilized targets, the same regeneration conditions were used. Prior to the protein measurements, three startup cycles were performed for conditioning purposes. Data were evaluated with Biacore Evaluation software. Double referencing was used and the 1:1 binding model was used to fit the raw data.
# T2 sequence (P29279 with tags, fused parts or gaps H83D): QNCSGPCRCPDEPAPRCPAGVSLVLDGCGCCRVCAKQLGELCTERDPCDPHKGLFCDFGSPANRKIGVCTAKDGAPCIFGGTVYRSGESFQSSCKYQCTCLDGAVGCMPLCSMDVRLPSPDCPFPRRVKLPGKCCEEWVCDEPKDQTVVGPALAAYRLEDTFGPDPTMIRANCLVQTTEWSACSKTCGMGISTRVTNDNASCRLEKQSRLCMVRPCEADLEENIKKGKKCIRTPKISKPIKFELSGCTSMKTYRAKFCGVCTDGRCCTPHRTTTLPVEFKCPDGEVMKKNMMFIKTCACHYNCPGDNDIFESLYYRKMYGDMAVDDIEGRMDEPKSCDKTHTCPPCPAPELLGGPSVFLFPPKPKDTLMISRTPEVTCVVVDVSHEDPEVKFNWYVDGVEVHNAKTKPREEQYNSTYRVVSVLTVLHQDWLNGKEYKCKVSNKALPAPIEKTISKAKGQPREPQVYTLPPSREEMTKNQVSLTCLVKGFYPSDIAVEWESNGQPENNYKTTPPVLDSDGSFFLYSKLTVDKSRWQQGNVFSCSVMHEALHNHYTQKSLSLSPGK
human CTGF kon,human CTGF KD,human CTGF koff,Molecule
50400 M⁻¹ s⁻¹,–,–,B1
23200 M⁻¹ s⁻¹,–,–,B2
30500 M⁻¹ s⁻¹,–,–,B3
102000 M⁻¹ s⁻¹,–,–,B4
B,B,B,B5
44400 M⁻¹ s⁻¹,–,–,B6
55600 M⁻¹ s⁻¹,–,–,B7
56600 M⁻¹ s⁻¹,–,–,B8
127000 M⁻¹ s⁻¹,–,–,B9
51000 M⁻¹ s⁻¹,–,–,B10
92300 M⁻¹ s⁻¹,–,–,B11
B,B,B,B12
40900 M⁻¹ s⁻¹,–,–,B13
45400 M⁻¹ s⁻¹,–,–,B14

# Biological target: T3, human CTGF (Homo sapiens, UniProt P29279)
# T3 construct: purchased Creative Biomart
# Test: SPR binding kinetics and affinity, human CTGF
# Parameters: key to human CTGF kon / human CTGF koff / human CTGF KD: B binding without determination of kinetics constants
# Conditions: 25° C., 1:1 binding model
# Method: as §1, §2, §3, §4
# T3 sequence (P29279 with tags, fused parts or gaps H83D): as above
row,human CTGF koff,Molecule
1,2.61e-05 s⁻¹,B1
2,3.06e-05 s⁻¹,B2
3,2.45e-05 s⁻¹,B3
4,5.34e-05 s⁻¹,B4
5,0.000108 s⁻¹,B6
6,0.000133 s⁻¹,B7
7,5.2e-05 s⁻¹,B8
8,6.63e-05 s⁻¹,B9
9,2.51e-06 s⁻¹,B10
10,7.02e-05 s⁻¹,B11
11,3.05e-06 s⁻¹,B13
12,0.000114 s⁻¹,B14

# System: not listed separately
# Test: Thermal stability assessment by nanoDSC
# Format: physicochemical
# Conditions: 1 mg/mL in PBS, scan 25-100° C. at 1° C./min
# Method: To determine the melting temperatures (Tms) of the lipocalin muteins, which is a general indicator for folding stability, the CTGF specific muteins, at a protein concentration of 1 mg/mL in PBS (Gibco), were scanned (25-100° C.) at 1° C./min using a capillary nanoDSC instrument (CSC 6300, TA Instruments). […] Several unfolding events can contribute to the observed thermogram. In cases with multiple transitions, the one with the major unfolding energy best represents the overall protein fold and is reported. Muteins were produced as described in Example 3. SEQ ID NOs: 3, 7, 9, 25, and 29 were expressed using E. coli, the other muteins were expressed using CHO cells.
# The resulting maximum melting temperatures as well as the onset temperature of melting for exemplary lipocalin muteins and fusion proteins are listed in Table 3 below.
row,Molecule,ONSET MELTING
1,B1,55 °C
2,B2,62 °C
3,B3,52 °C
4,B4,57 °C
5,B5,59 °C
6,B8,49 °C
7,B9,55 °C
8,B11,59 °C
9,B12,46 °C
10,B14,49 °C

# Same assay, conditions: 1 mg/mL in PBS, scan 25-100° C. at 1° C./min, major transition
row,Molecule,TM
1,B1,65 °C
2,B2,71 °C
3,B3,64 °C
4,B4,68 °C
5,B5,74 °C
6,B8,65 °C
7,B9,65 °C
8,B11,73 °C
9,B12,61 °C
10,B14,75 °C

# Biological target: T1, Murine CTGF
# Test: SPR binding kinetics and affinity, murine CTGF
# Parameters: key to Murine CTGF kon / Murine CTGF koff / Murine CTGF KD: B binding without determination of kinetics constants
# Conditions: 25° C., 1:1 binding model
# Method: as §1, §2, §3, §4
# The values determined for kon, koff and the resulting equilibrium dissociation constant (KD) for exemplary lipocalin muteins are summarized in Table 4.
Murine CTGF koff,Murine CTGF kon,Murine CTGF KD,Molecule
8.23e-05 s⁻¹,60700 M⁻¹ s⁻¹,–,B1
0.000208 s⁻¹,35300 M⁻¹ s⁻¹,–,B2
0.000172 s⁻¹,41400 M⁻¹ s⁻¹,–,B3
7.03e-05 s⁻¹,190000 M⁻¹ s⁻¹,–,B4
B,B,B,B5
8.19e-05 s⁻¹,80100 M⁻¹ s⁻¹,–,B6
0.000128 s⁻¹,91400 M⁻¹ s⁻¹,–,B7
2.54e-05 s⁻¹,93200 M⁻¹ s⁻¹,–,B8
3.94e-05 s⁻¹,228000 M⁻¹ s⁻¹,–,B9
B,B,B,B10
6.34e-05 s⁻¹,161000 M⁻¹ s⁻¹,–,B11
B,B,B,B12
B,B,B,B13
0.000131 s⁻¹,72000 M⁻¹ s⁻¹,–,B14
